Reference: paper PMC11731779, “Transferrin Disassociates TCR from CD3 Signaling Apparatus to Promote Metastasis” (Research, 2025)

B1: T cell receptor α constant (TRAC) (domain or fragment, human, UniProt P01848 1-115, looked up)
chain: IQNPDPAVYQLRDSKSSDKSVCLFTDFDSQTNVSQSKDSDVYITDKTVLDMRSMDFKSNSAVAWSNKSDFACANAFNNSIIPEDTFFPSPESSCDVKLVEKSFETDTNLNFQNLS
notes: T cell receptor alpha chain constant region (TRAC), human, UniProt P01848; TRAC protein used as analyte in SPR; construct and host may stand in the Supplementary Methods; also called constant domain (CD) of TCRα; Cα
B2: DK8 (peptide)
peptide: DMRSMDFK
notes: amino acids 50 to 57 of TRAC (UniProt P01848); also called interfering peptide DK8; designed peptide (DK8)

How the values were obtained:
transferrin [1] = target: T1, transferrin (UniProt P02787 20-698); assay: SPR; Biacore T200; transferrin amine-coupled to a CM5 chip at ~6,000 resonance units; analytes in PBST (0.02% Tween 20) at 20 μl/min; TCRα, TCRβ and human serum albumin at 1,000 nM; TCRα and TRAC at 125, 250, 500 and 1,000 nM; kinetic and steady-state fits; settings: both partners purified
T1 construct: transferrin (serotransferrin); One molecule for the transferrin immobilised for SPR, added to cells (co-IP with intervention, FRET) and co-precipitated from human PBMC / T cells; Methods are in the supplement; also called Tf
T1 sequence (P02787 20-698): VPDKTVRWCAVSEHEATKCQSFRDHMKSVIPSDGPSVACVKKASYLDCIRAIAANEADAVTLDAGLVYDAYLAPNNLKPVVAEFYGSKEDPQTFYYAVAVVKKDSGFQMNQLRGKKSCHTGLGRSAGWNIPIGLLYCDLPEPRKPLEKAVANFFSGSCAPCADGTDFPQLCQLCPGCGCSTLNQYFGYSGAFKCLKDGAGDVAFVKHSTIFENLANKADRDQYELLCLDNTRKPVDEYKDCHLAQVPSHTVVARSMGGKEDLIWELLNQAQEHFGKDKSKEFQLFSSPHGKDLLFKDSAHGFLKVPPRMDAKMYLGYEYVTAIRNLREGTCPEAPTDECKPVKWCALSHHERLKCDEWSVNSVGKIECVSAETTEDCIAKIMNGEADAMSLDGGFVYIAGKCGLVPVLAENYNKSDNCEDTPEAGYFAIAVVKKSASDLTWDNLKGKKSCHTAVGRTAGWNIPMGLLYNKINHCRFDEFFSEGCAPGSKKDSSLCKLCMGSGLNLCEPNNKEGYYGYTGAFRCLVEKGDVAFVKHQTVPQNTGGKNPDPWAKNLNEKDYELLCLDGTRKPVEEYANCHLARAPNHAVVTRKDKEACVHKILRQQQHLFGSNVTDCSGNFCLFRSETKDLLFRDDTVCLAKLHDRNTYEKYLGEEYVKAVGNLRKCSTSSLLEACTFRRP

transferrin [2] = target: T1, transferrin; assay: not stated; DK8 binding to transferrin, 'binding response value' and KD (Fig. S9C and E); method not given

Binder | Kd (transferrin [1]) | Kd (transferrin [2])
B1 | 10.9 nM | 
B2 |  | 166 nM
